Drawing on publication PMC4335062, “Data-Driven Prediction and Design of bZIP Coiled-Coil Interactions” (PLoS Computational Biology, 2015), this text covers Ki and Kd for four molecules.

Values joined by “and” are separate entries in the source; they are usually repeats but may differ in a detail not shown here. Equal entries are not always repeated. Where no end group is shown, it is not given here.

The target of one experiment is T1, ATF4 (Homo sapiens, UniProt P18848).
T1 construct: made in house
T1 sequence (P18848 278-341 limits assumed): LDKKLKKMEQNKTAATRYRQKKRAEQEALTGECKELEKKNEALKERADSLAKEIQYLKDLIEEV
Description: Competition binding assay, unlabeled design vs FITC-labeled design and TAMRA-labeled ATF4. The note with it: unlabeled design mixed with FITC-labeled design and TAMRA-labeled ATF4. The method, then: In the competition form of the assay, a FRET pair was made by mixing 10 nM of the donor-labeled peptide with a specified concentration of the acceptor-labeled peptide in 1 mM TCEP-HCl, and 20 μL of this solution was added to the wells after unlabeled design was titrated in 2-fold dilutions over the wells to a final concentration ranging from 0 to 2.5 μM. The amount of acceptor used varied for each curve, taking into account the Kd of the FRET complex in order to obtain a good lower baseline for fitting purposes. Samples were equilibrated for one hour before reading the plates; repeated reading of the plates over several hours gave no change in signal.
For the competition experiments, the IC50 was determined in MATLAB by fitting the binding data to the equation signal=a+b−a/(1+x/c)^H , where a and b are the lower and upper baselines, c is the IC50 value, x is the inhibitor concentration, and the Hill coefficient H was set to 1. Ki values were calculated as in Fu et al..

The target in another experiment is ATF2 (human) (UniProt P15336). Description: FRET or BRET; direct-binding FRET in 384-well plates; rhodamine-labelled design (acceptor) titrated 0 to 1 uM into 10 nM fluorescein-labelled bZIP (donor); 150 mM KCl, 50 mM potassium phosphate pH 7.4, 0.1% Tween-20, 0.1% BSA; 4 °C.
Sequence of ATF2 (human) (P15336 whole entry): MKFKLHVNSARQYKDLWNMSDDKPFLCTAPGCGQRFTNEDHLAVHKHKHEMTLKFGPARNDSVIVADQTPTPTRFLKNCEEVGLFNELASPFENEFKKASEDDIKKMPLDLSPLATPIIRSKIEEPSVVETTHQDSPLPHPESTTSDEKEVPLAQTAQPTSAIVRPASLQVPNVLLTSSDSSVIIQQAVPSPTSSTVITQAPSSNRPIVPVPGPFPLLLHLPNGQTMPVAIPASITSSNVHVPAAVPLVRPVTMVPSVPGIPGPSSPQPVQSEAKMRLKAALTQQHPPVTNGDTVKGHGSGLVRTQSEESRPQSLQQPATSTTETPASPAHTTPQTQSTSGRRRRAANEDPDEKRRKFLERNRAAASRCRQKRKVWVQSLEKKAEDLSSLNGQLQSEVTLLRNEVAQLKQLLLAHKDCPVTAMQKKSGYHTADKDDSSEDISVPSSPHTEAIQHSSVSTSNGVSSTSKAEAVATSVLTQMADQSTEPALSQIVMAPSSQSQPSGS
The target in experiment [1] is ATF4 (human) (UniProt P18848). The description is as above.
Sequence of ATF4 (human) (P18848 whole entry): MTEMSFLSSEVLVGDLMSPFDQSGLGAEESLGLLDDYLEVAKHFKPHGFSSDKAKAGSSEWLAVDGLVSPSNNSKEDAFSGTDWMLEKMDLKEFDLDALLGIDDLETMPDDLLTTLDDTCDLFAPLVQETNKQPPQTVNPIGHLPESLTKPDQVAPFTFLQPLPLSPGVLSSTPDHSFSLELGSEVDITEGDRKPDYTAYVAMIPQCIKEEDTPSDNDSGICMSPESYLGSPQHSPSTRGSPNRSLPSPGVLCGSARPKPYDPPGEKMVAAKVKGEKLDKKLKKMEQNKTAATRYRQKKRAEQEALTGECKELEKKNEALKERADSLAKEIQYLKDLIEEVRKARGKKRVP
In another experiment the target is ATF5 (human) (UniProt Q9Y2D1). The description is as above.
Sequence of ATF5 (human) (Q9Y2D1 whole entry): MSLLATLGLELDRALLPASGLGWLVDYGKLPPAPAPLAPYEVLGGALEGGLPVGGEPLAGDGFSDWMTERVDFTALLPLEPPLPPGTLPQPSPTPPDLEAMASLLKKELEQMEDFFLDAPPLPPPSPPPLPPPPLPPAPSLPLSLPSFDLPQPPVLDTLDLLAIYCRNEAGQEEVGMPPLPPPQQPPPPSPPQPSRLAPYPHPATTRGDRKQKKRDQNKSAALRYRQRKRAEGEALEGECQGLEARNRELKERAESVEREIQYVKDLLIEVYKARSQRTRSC
In experiment [2] the target is T2, NFE2L1 (Homo sapiens, UniProt Q14494). The description is as above.
T2 sequence (Q14494 whole entry): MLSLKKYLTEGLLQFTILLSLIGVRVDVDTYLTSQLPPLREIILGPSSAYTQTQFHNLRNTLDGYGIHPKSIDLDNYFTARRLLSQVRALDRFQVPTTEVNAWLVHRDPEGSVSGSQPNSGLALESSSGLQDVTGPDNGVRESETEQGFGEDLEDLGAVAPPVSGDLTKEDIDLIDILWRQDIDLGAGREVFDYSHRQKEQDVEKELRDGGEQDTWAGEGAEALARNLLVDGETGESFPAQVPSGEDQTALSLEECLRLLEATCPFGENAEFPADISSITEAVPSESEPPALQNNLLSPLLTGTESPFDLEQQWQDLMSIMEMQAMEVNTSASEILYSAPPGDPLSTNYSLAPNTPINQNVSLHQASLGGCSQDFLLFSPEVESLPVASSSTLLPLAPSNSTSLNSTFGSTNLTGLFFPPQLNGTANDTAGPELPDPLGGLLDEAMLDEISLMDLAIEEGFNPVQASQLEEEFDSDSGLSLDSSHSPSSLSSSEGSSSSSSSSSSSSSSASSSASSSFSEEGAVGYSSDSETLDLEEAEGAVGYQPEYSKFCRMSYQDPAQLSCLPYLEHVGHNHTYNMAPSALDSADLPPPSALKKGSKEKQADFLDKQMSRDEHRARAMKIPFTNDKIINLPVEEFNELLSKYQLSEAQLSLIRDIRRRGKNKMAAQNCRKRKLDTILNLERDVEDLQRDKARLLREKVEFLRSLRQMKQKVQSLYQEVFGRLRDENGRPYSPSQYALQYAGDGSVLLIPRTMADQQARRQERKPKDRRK
Experiment [3] has as its target ATF4 (human) (UniProt P18848). Description: FRET or BRET; direct-binding FRET in 384-well plates; rhodamine-labelled design (acceptor) titrated 0 to 1 uM into 10 nM fluorescein-labelled bZIP (donor); 150 mM KCl, 50 mM potassium phosphate pH 7.4, 0.1% Tween-20, 0.1% BSA; 37 °C. A general note: Bioluminescence resonance energy transfer reports proximity on the nanometre scale.

In experiment [4] the target is ATF4 (human) (UniProt P18848). Description: FRET or BRET; direct-binding FRET in 384-well plates; rhodamine-labelled design (acceptor) titrated 0 to 1 uM into 10 nM fluorescein-labelled bZIP (donor); 150 mM KCl, 50 mM potassium phosphate pH 7.4, 0.1% Tween-20, 0.1% BSA; 23 °C.
Another experiment deals with MAFF (human) (UniProt Q9ULX9). The description is as above.
Sequence of MAFF (human) (Q9ULX9 whole entry): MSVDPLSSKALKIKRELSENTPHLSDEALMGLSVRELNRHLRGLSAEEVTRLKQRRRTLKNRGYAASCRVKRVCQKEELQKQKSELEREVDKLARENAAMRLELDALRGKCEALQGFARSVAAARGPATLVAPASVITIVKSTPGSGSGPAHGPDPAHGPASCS
In experiment [5] the target is NFE2 (human) (UniProt Q16621). The experiment is described as above.
Sequence of NFE2 (human) (Q16621 whole entry): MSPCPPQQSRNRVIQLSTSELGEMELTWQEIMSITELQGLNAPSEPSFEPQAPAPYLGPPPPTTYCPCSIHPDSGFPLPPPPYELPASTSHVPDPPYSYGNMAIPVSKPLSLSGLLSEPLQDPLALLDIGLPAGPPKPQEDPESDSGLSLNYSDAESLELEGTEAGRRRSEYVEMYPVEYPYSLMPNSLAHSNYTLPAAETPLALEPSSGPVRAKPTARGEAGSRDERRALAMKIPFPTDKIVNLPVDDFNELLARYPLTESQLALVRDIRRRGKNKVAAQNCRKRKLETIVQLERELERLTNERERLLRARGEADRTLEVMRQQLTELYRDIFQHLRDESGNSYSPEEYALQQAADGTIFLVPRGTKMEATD
For another experiment, the target named is FOS (Homo sapiens, UniProt P01100). Description: FRET or BRET; direct-binding FRET in 384-well plates; rhodamine-labelled design (acceptor) titrated 0 to 1 uM into 10 nM fluorescein-labelled bZIP (donor); 150 mM KCl, 50 mM potassium phosphate pH 7.4, 0.1% Tween-20, 0.1% BSA; 37 °C.
Sequence of FOS (P01100 whole entry): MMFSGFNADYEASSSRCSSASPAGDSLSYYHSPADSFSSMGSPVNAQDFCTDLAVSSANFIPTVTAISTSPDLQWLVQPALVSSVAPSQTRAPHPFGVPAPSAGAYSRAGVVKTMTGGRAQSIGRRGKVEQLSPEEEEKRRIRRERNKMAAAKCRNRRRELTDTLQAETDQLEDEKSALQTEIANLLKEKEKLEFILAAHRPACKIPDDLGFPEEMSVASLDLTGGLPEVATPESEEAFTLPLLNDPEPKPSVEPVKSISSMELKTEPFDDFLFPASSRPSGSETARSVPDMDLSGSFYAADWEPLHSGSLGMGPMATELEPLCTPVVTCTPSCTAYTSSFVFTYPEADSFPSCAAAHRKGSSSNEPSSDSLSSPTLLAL
The target in a further experiment is HLF (human) (UniProt Q16534). The experiment is described as above.
Sequence of HLF (human) (Q16534 whole entry): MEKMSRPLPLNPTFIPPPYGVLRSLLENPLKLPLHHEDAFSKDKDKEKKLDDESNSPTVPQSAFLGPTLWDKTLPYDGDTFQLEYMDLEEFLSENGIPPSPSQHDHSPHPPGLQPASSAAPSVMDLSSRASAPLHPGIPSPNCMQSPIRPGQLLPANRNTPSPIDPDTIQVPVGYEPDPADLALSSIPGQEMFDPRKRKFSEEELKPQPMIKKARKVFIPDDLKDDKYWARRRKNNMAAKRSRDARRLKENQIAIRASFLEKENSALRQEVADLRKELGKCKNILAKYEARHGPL
Experiment [6] has as its target NFE2 (human) (UniProt Q16621). The description is as above.
The target of experiment [7] is T2, NFE2L1. Described as above.
In a further experiment the target is MAFG (Homo sapiens, UniProt O15525). The experiment is described as above.
Sequence of MAFG (O15525 whole entry): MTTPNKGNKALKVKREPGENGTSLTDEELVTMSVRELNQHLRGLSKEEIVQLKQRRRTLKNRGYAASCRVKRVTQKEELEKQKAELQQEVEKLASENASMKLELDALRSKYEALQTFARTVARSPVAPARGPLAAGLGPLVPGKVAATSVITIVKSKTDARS
In experiment [8] the target is X-box binding protein 1 (human) (UniProt P17861). Described as above.
Sequence of X-box binding protein 1 (human) (P17861 whole entry): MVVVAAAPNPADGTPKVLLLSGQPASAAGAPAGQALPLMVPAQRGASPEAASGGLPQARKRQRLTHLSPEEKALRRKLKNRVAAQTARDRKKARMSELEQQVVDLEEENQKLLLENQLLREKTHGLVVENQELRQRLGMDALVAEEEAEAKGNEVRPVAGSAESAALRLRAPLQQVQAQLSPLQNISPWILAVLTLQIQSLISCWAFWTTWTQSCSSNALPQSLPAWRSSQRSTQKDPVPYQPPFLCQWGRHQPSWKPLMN

As usually defined, the Ki is the dissociation constant of the complex between target and ligand, obtained from inhibition or displacement. Higher therefore signals lower affinity. As a reminder, the Kd is the concentration at which binding is half-saturated. Read a low Kd as a tighter complex.

On ATF4, “NQIKTLRTRLSKLRKDNLQLEKDIANLERKAKDLRAEKEQLEYEL [ATF4-d1]” showed a Ki of 48 nM.
Turning to “KRIAYLRQRIAELRNENHVLESRIQRMEKEKDALQQDRDHLEYEL [ATF5-d1]”, the Ki on ATF4 is 6 nM.

B1: ATF5-d1 labeled at the C-terminus (designed binder)
chain: GESKEYKKGSGSKRIAYLRQRIAELRNENHVLESRIQRMEKEKDALQQDRDHLEYELGC(Rhodamine Red C2‑maleimide)
modifications: not fully specified
Turning to B1, the Kd with ATF2 (human) is more than 5000 nM; with ATF4 (human) [1], 1 nM; with ATF5 (human) it was 1.1 nM and 1.2 nM and 1 nM; with NFE2L1 [2] it was more than 5000 nM; with ATF4 (human) [3], 4.8 nM and 4 nM and 6 nM; with ATF4 (human) [4] it was 1 nM. In addition, the equilibrium dissociation constant (Kd) in the experiment with MAFF (human), with NFE2 (human) [5], in the experiment with FOS, with HLF (human), in the experiment with NFE2 (human) [6] and in the experiment with NFE2L1 [7] was more than 5000 nM in each case.

B2: ATF4-d1 labeled at the C-terminus (designed binder)
chain: GESKEYKKGSGSNQIKTLRTRLSKLRKDNLQLEKDIANLERKAKDLRAEKEQLEYELGC
modifications: also: C59 label by assay: Rhodamine Red C2-maleimide or fluorescein-5-maleimide
notes: solubility linker after the His6 tag; added to the C-terminus for labeling; one molecule for the rhodamine- and the fluorescein-labelled form; the assay tells which label stood there; also called ATF4-d1-Rhodamine; ATF4-d1-FITC; source: E. coli RP3098, purified (Ni-NTA under denaturing conditions, reverse-phase HPLC)
On to B2, for which the dissociation constant Kd in the experiment with ATF2 (human) was 1000 nM; with ATF4 (human) [1], 1 nM; in the experiment with ATF5 (human) it was more than 5000 nM; in the experiment with NFE2L1 [2], more than 5000 nM; with ATF4 (human) [3], 11.3 nM and 9.9 nM and 6.8 nM; in the experiment with ATF4 (human) [4], 1 nM. Also, the Kd with MAFF (human) was 623 nM; with NFE2 (human) [5] it was more than 5000 nM; in the experiment with MAFG it was more than 5000 nM; in the experiment with NFE2 (human) [6] it was 2920 nM; in experiment [8], more than 5000 nM.
